According to patent US20150118700:
Residue numbers refer to the chain shown, from its start. Names and notes keep the numbering of the source.

T1: α-fructosyl hexapeptide (α-fructosyl-valyl-histidyl-leucyl-threonyl-propyl-glutamic acid)
T1 chain: VHLTPE

B1: PnFX-62D/106K/110L/113K (protein)
chain: MAPSRANTSVIVVGGGGTIGSSTALHLVRSGYTPSNVTVLDAYPIPSSQSAGNDLNKIMGVDLRNPVDLQLALEARQMWNEDELFKKFFHNTGRLDCAHGEKDIAKLKSLYQKLVDAGLDATNEWLDSEDEILKRMPLLSRDQIKGWKAIFSKDGGWLAAAKAINAVGEYLRDQGVRFGFYGAGSFKAPLLAEGVCIGVETVDGTRYYADKVVLAAGAWSPTLVELHEQCVSKAWVYGHIQLTPEEAARYKNSPVVYNGDVGFFFEPNEHGVIKVCDEFPGFTRFKMHQPFGAKAPKRISVPRSHAKHPTDTIPDASDVSIRRAIATFMPQFKNKKMFNQAMCWCTDTADAALLICEHPEWKNFVLATGDSGHSFKLLPNIGKHVVELLEGTLADDLAHAWRWRPGSGDALKSRRSAPAKDLADMPGWNHDKPRANL
B2: PnFX-62D/63H/106K/110L/113K/351S (protein)
chain: B1 chain with L63H, A351S
B3: ketoamine oxidase derived from Neocosmospora vasinfecta (NvFX) (protein)
chain: MTTPRKETTVLIIGGGGTIGSSTALHLLRAGYTPSNITVLDTYPIPSAQSAGNDLNKIMGIRLRNKVDLQLSLEARDMWRNDALFRPFFHNTGRLDCESSAEGVEGLRREYQKLVEAGVGLEETHEWLDSEEAILEKAPLLQREEIEGWKAIWSEEGGWLAAAKAINAIGEELQRQGVRFGFGGAGSFKRPLFADDGTTCIGVETVDGTQYHADKVVLAAGAWSPALVDLEEQCCSKAWVYAHMQLTPEEAAVYKGCPVVYHGDVGFFFEPNENGVIKVCDEFPGFTRFKQHQPYGAPAPKPVSVPRSHAKHPTDTYPDASEESIKRAVSTFLPRFKDKPLFNRALCWCTDTADSALLICEHPRWKNFILATGDSGHSFKLLPIIGKHVVELVEGRLADDLAEAWRWRPGQGDARKSIRAAPAKDLADMPGWKHDQDSESR
B4: NvFX-62D/106K/110L (protein)
chain: B3 chain with R62D, G106K, E110L
B5: fructosyl peptide oxidase derived from Eupenicillium terrenum (EFP-T5) (protein)
chain: MAHSRASTKVVVVGGGGTIGSSTALHLIRSGYTPSNITVLDVYKTPSLQSAGHDLNKIMGIRLRNGPDLQLSLESLDMWQNDELFKPFFHQVGMIDCSSSKEGIENLRRKYQTLLDAGIGLEKTNVWLESEDEILAKAPNFTREQVKGWKGLFCTDGGWLAAAKAINAIGIFLQDKGVKFGFGDAGTFQQPLFAADGKTCIGLETTDGTKYFADKVVLAAGAWSPTLVDLEDQCVSKAWVFAHIQLTPKEADAYKNVPVVYDGEYGFFFEPDEYGVIKVCDEFPGFSRFKLHQPYGAASPKMISVPRSHAKHPTDTYPDASEVTIRKAIARFLPEFKDKELFNRTMCWCTDTADANLLICEHPKWKNFILATGDSGHSFKLLPNIGKYVVELLEGSLSQEMAGAWRWRPGGDALRSRRGAPAKDLAEMPGWKHDAHL
B6: EFP-T5-R62D (protein)
chain: B5 chain with R62D
B7: EFP-T5-62D/63H/106K/110L/113K/355S (protein)
chain: B5 chain with R62D, L63H, N106K, K110L, T113K, A355S
B8: amadoriase exhibiting 95% sequence identity with ketoamine oxidase derived from Curvularia clavata (Cc95FX) (protein)
chain: MAPSRANTSVIVVGGGGTIGSSTALHLVRSGYTPSNITVLDAYPIPSSQSAGNDLNKIMGIRLRNKVDLQLSLEARQMWREDDLFKEYFHNTGRLDCAHGEEGLADLRQAYQALLDANAGLEETTEWLDSEDEILKKMPLLSRDQIKGWKAVYSQDGGWLAAAKAINAIGEYLRAQGVKFGFGGAGSFKQPLLAEGVCIGVETVDGTRYYADKVVLAAGAWSPTLVELHEQCVSKAWVYGHIQLTPEEAAEYKNSPVVYNGDVGFFFEPNEHGVIKVCDEFPGFTRFKMHQPFGAKAPKRISVPRSHAKHPTDTIPDASEKSIRKAIATFLPKFTEKELFNRHLCWCTDTADAALLICEHPEWKNFVLATGDSGHSFKLLPNIGKHVVELLEGTLADDLAHAWRWRPGSGDALKSRRSAPAKDLADMPGWKHDDVVKSKL
B9: Cc95FX-62D/63H/106K/110L/113K/353S (protein)
chain: B8 chain with R62D, L63H, D106K, A110L, A113K, A353S
B10: fructosyl amino acid oxidase derived from Aspergillus nidulans with serine 59 substituted with glycine (AnFX) (protein)
chain: MTPRANTKIIVVGGGGTMGSSTALHLLRAGYTPSNITVLDTCPIPSAQSAGYDLNKIMGIRLRNKPDLQLSLEALDMWKNDPLFKPFFHNVGMIDVSSTEEGIEGLRKKYQSLLDAGIGLEKTNFMLESEDEILAKAPHFTQEQIKGWKGLFCGDGGWLAAAKAINAIGQFLKEQGVKFGFGGAGTFKKPLFADAHEKTCIGVETVDGTKYYADKVVLAAGAWSSTLVDLEEQCVSKAWVFAHIQLTPAEAAAYKNTPVIYDGDYGFFFEPNENGIIKVCDEFPGFTHFKMHQPYGSPAPKPISVPRSHAKHPTDTYPHASEVTIKKAINRFLPRFNDKELFNRAMCWCTDTADANLLVCEHPRWKGFYLATGDSGHSFKLLPNIGKHVVELLEERLESVFKDAWRWRPGSGDALKSRRAAPAKDLADMPGWRNEAKM
B11: AnFX-61D/105K/109L (protein)
chain: B10 chain with R61D, G105K, K109L
B12: AnFX-61D/62H/101K/105K/109L/112K/355S (protein)
chain: B10 chain with R61D, L62H, E101K, G105K, K109L, S112K, A355S
B13: CFP-T7-H1 (protein)
chain: MTSNRADTRVIVVGGGGTIGSSTALHLVRSGYAPANITVLDTFEIPSAQSAGHDLNKIMGIALRNKVDLQMSLEARQMWKEDELFQPFFHNTGRMDCEHTPEGIEDLKKQYQALHDAGAGLEKTHAWLDNEDEILSKMPLLQRDQIQGWKAIWSQDGGWLAAAKAINAIGQFLKERGVKFGFGGAGSFKQPLFDDEGTTCIGVETADGTKYYADKVVLAAGAWSPTLVDLEDQCCSKAWVYAHIQLTPEEAAEYKGVPVVYNGEFGFFFEPDEFGVIKVCDEFPGFSRFKEHQPYGAPSPKRISVPRSHAKHPTDTYPDASEVSIKKAIATFLPRFQDKELFNRALCWCTDTADAALLMCEHPKWKNFILATGDSGHSFKILPNVGKYVVELIEGRLPEEMAYQWRWRPGGDALKSRRAAPPKDLADMPGWKHDPKL
B14: CFP-T7-H4 (protein)
chain: B13 chain with Q110Y
B15: CFP-T7-H27 (protein)
chain: B13 chain with A62D, L63K, D106K, Q110L, A113K
B16: CFP-T7-H3 (protein)
chain: B13 chain with Q110F
B17: CFP-T7-H28 (protein)
chain: B13 chain with A62D, L63H, E102K, D106K, Q110L, A113K
B18: CFP-T7-H29 (protein)
chain: B13 chain with A62D, L63H, D106K, Q110L, A113K, A419K
B19: CFP-T7-H2-62N (protein)
chain: B13 chain with A62N, Q110L
B20: CFP-T7-H24 (protein)
chain: B13 chain with A62D, L63A, D106K, Q110L, A113K
B21: CFP-T7-H26 (protein)
chain: B13 chain with A62D, L63H, D106K, Q110L, A113K
B22: CFP-T7-H25 (protein)
chain: B13 chain with A62D, L63D, D106K, Q110L, A113K

Target: T1, α-fructosyl hexapeptide …

Row | Protein | Specific activity (U/mg), 1 mM αF6P | αF6P oxidation activity, relative to αFVH oxidation activity designated to be 100 (relative (αFVH = 100)) | other results
1 | B1 | 0.125 U/mg | – | specific activity on αF6P, fold over PnFX: specific activity was elevated by 13.7 fold
2 | B2 | 0.667 U/mg | – | –
3 | B3 | 0 U/mg | – | –
4 | B4 | 0.003 U/mg | – | –
5 | B5 | 0 U/mg | – | –
6 | B6 | 0.0043 U/mg | – | –
7 | B7 | 1.12 U/mg | – | –
8 | B8 | – | 0 | –
9 | B9 | – | 237 | –
10 | B10 | 0 U/mg | – | –
11 | B11 | 0.106 U/mg | – | –
12 | B12 | 0.283 U/mg | – | –
13 | B13 | – | 0.0316 | –
14 | B14 | – | 0.0341 | –
15 | B15 | – | – | αF6P oxidation activity ratio, relative to CFP-T7-H20 designated to be 100 (relative (CFP-T7-H20 = 100)): 7
16 | B16 | – | 0.0298 | –
17 | B17 | – | 134 | αF6P oxidation activity ratio (reference row of the table, 100) (relative (CFP-T7-H28 = 100)): 100; αF6P oxidation activity ratio, relative to CFP-T7-H26 designated to be 100 (relative (CFP-T7-H26 = 100)): 117
18 | B18 | – | 111 | αF6P oxidation activity ratio, relative to CFP-T7-H26 designated to be 100 (relative (CFP-T7-H26 = 100)): 102
19 | B19 | – | – | αF6P oxidation activity ratio, relative to CFP-T7-H2 designated to be 100 (relative (CFP-T7-H2 = 100)): 120
20 | B20 | – | 86.7 | αF6P oxidation activity ratio, relative to CFP-T7-H20 designated to be 100 (relative (CFP-T7-H20 = 100)): 123
21 | B21 | – | 84.3 | αF6P oxidation activity ratio (reference, designated to be 100) (relative (CFP-T7-H26 = 100)): 100; αF6P oxidation activity ratio, relative to CFP-T7-H20 designated to be 100 (relative (CFP-T7-H20 = 100)): 142
22 | B22 | – | – | αF6P oxidation activity ratio, relative to CFP-T7-H20 designated to be 100 (relative (CFP-T7-H20 = 100)): 24
